Source: paper PMC12738692, “Identification, characterization, and structure-activity relationship of the ASIC3-selective peptide WRPRFa” (Communications Chemistry, 2025)
Where “and” joins values, the source holds several entries; their conditions need not be identical. Identical values can stand only once. Like-named read-outs stand apart in the source and are kept apart here. Where a SMILES comes first, the peptide text is derived from it. Where no end group is shown, it is not given here. [ ]: non-standard residue; d: D form. The star is where a group is joined. Arg(Me2a) = CN(C)C(=N)NCCC[C@H](N)C(=O)O; Cha = N[C@@H](CC1CCCCC1)C(=O)O; pNA = O=[N+]([O-])c1ccc(N*)cc1

Tests used:
[1] = target: T1, human ASIC3 (Homo sapiens, UniProt Q9UHC3); assay: cell-based
T1 construct: CHO cells stably expressing human ASIC3 (NM_004769.1)
T1 sequence (Q9UHC3 1-531): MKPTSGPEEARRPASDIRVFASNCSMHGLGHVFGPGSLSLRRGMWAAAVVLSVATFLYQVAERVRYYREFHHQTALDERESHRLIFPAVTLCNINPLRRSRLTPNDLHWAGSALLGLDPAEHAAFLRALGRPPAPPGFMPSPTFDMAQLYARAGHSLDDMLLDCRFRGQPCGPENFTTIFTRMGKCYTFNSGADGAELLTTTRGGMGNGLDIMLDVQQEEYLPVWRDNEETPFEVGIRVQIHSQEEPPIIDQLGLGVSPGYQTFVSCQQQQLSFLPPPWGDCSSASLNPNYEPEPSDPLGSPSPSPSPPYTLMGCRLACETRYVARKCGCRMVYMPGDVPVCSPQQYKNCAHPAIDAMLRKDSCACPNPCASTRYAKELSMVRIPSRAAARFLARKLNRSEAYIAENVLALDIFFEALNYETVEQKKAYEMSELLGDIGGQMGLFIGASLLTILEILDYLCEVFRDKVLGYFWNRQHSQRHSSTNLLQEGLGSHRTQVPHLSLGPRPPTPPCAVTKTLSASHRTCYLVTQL

[2] = target: T1, human ASIC3; assay: QPatch II peptide concentration-response (I3s/Ipk); type: cell-based; conditions: WT ASIC3, QPatch II, read-out: EC50 (95% CI)
Description: RFamide peptide activity on ASIC3 was measured on the QPatch II platform (Sophion, Ballerup, Denmark) using either a CHO or HEK stable cell line and analyzed with Sophion Analyzer software (version 5.2). Prior to recording, the cells were washed twice in PBS (Gibco, Paisley, UK) and treated with Detachin (Genlantis, San Diego) for 3 min, then resuspended in their respective growth media without serum for a concentration of 2 × 10^6 cells/ml. A minimum of 5 mL of cells was added to the QStirrer, which was placed on the deck of the QPatch II and allowed to incubate at room temperature for a minimum of 20 min.
The bath solution contained 135 mM NaCl, 5 mM KCl, 4.8 mM CaCl2, 1 mM MgCl2, 10 mM HEPES, 10 mM MES, and 10 mM glucose adjusted to pH 7.4 with NaOH. The intracellular solution contained 65 mM CsF, 65 mM CsCl, 10 mM HEPES, 5 mM EGTA, 1 mM MgCl2, adjusted to pH 7.4 with CsOH. Cells were held at -60 mV and ASIC currents were evoked with 3 s applications of pH 6.3 buffer. Peptides were preincubated for at least 2 min. The extracellular solution was changed by dispensing 5 µL of buffer through the ~1.7 µL recording chamber, with a solution switch time of 100 ms, that exchanges 99% of the solution. Signals were acquired at 1 kHz and low-pass filtered at 300 Hz. Experiments performed on QPatch II are specifically indicated in the text.

[3] = target: T2, ASIC3 E78Q (Homo sapiens, UniProt Q9UHC3, E78Q); assay: MPC peptide activity on ASIC3 E78Q mutant (I3s/Ipk, peak current, double mutant cycle); type: cell-based; conditions: read-out: EC50 (95% CI)
T2 construct: human ASIC3 (NM_004769.4); P2A-mCherry reporter (C, cleaved yes); expressed in transfected cells; host or cells: CHO cells (85050302, Sigma), transient transfection
T2 sequence (Q9UHC3 1-531 E78Q): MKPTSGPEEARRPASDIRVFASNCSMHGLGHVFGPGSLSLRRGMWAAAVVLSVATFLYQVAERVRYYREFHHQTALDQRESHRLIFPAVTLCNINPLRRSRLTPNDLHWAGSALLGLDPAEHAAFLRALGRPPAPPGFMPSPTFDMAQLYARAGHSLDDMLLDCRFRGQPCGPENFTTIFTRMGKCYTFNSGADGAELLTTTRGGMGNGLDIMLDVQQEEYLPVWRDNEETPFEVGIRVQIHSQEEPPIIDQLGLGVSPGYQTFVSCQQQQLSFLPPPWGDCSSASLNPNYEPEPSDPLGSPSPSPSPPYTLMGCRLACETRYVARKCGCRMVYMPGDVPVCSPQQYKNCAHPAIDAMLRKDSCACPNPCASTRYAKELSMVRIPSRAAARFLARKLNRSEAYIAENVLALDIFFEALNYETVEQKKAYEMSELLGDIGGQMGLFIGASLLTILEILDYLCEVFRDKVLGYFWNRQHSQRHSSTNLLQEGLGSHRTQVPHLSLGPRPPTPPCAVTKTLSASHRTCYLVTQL
Description: We then asked which of the two WRPRFa arginines interacts with the E78/E421 pair. […] To this end, we used a double mutant cycle approach to identify coupling between site 2 or site 4 of WRPRFa with the E78/E421 pair. In this case, the double mutant cycle experiment compared the change in potency caused by single mutations in either WRPRFa or ASIC3 against the change in potency caused by simultaneous mutations in WRPRFa and ASIC3. A coupling coefficient (Ω) can be calculated by dividing the product of the WT/WRPRFa potency and double mutant potency by the product of the two single mutant potencies.
For peptide concentration-response curves, Bottom was set to 0 and Top was constrained to ≤ 1 for peptides that approached plateau phase or where I3s/Ipk reached 1. […] For activation- or desensitization-pH curves, Bottom was set to 0 and Top constrained to 1.

[4] = target: T1, human ASIC3; type: cell-based; conditions: for Mean (I3s/Ipk), arithmetic / Geometric mean (I3s/Ipk): QPatch II; for Mean (I3s/Ipk), arithmetic: CHO cells
[5] = target: T3, ASIC3 E378Q (Homo sapiens, UniProt Q9UHC3, E378Q); assay: MPC peptide activity on ASIC3 E378Q mutant; type: cell-based; conditions: read-out: EC50 (95% CI)
T3 construct: human ASIC3 (NM_004769.4); P2A-mCherry reporter (C, cleaved yes); expressed in transfected cells; host or cells: CHO cells (85050302, Sigma), transient transfection
T3 sequence (Q9UHC3 1-531 E378Q): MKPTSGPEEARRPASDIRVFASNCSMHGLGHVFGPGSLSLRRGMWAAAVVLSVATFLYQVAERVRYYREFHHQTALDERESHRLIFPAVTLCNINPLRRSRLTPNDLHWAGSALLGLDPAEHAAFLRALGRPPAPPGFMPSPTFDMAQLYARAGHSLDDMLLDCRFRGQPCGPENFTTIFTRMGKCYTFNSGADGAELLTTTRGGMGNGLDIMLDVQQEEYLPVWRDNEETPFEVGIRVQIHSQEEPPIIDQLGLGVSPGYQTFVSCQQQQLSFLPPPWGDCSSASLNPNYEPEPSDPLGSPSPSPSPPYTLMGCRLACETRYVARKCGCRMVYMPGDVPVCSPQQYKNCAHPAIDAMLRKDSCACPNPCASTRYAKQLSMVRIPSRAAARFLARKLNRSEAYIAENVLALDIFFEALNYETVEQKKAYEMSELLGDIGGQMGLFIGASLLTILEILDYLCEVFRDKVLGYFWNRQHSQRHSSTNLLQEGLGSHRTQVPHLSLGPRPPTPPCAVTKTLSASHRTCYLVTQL
Description: (§1) We individually mutated the four glutamates to glutamine to remove their charge but maintain the side chain structure (Fig. 4C). We tested each mutant by incubating HEK cells stably expressing ASIC3 or CHO cells transfected with mutant ASIC3 with 30 µM WRPRFa before a pH 6.3 acid stimulus.
(§2) All mutagenesis was performed at Genscript, and sequences were verified by nanopore sequencing by Plasmidsaurus (Eugene, OR). The numbering of ASIC3 amino acids is based on RefSeq NP_004760.1. Plasmids were transfected into CHO cells using Lipofectamine 3000 (Thermo) according to the manufacturer’s protocol. Cells were used for patch-clamp recordings 24–48 h after transfection.
(§3) CHO and HEK cells were tested in the whole-cell configuration on MPC platforms using an Axopatch 200B amplifier (Axon Instruments, San Jose, CA) and a Digidata 1322A or Digidata 1440A digitizer (Axon) using pClamp 9.2 or 10.7 (Molecular Devices, San Jose, CA), respectively. When testing transfected cells, red fluorescence from the cleaved mCherry reporter was used to identify cells expressing ASIC3, ASIC131, or ASIC313. For cells expressing transfected ASIC1a or ASIC2a, the green signal from the cleaved eGFP reporter was used. All electrophysiology data were analyzed with Clampfit 11.1 (Molecular Devices).

[6] = target: T4, ASIC3 E416Q (Homo sapiens, UniProt Q9UHC3, E416Q); assay: MPC peptide activity on ASIC3 E416Q mutant (incl. double mutant cycle); type: cell-based; conditions: read-out: EC50 (95% CI)
T4 construct: human ASIC3 (NM_004769.4); P2A-mCherry reporter (C, cleaved yes); expressed in transfected cells; host or cells: CHO cells (85050302, Sigma), transient transfection
T4 sequence (Q9UHC3 1-531 E416Q): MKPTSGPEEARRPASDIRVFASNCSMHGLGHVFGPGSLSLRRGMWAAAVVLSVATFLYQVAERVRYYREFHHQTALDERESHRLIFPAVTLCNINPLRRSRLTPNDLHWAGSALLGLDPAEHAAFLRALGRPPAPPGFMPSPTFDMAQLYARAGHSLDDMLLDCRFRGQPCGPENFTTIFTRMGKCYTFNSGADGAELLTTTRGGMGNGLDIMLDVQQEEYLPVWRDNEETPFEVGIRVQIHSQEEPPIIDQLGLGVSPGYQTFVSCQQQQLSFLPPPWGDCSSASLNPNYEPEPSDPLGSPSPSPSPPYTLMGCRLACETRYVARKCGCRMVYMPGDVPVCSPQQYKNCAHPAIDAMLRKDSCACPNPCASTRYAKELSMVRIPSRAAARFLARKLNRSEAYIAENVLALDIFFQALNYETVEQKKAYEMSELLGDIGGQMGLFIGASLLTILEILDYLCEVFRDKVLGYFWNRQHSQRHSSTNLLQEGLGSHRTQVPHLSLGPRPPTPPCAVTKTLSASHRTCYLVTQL
Description: as §1, §2, §3

[7] = target: T5, human ASIC3 (acid-sensing ion channel 3) (human) (UniProt Q9UHC3)
T5 sequence: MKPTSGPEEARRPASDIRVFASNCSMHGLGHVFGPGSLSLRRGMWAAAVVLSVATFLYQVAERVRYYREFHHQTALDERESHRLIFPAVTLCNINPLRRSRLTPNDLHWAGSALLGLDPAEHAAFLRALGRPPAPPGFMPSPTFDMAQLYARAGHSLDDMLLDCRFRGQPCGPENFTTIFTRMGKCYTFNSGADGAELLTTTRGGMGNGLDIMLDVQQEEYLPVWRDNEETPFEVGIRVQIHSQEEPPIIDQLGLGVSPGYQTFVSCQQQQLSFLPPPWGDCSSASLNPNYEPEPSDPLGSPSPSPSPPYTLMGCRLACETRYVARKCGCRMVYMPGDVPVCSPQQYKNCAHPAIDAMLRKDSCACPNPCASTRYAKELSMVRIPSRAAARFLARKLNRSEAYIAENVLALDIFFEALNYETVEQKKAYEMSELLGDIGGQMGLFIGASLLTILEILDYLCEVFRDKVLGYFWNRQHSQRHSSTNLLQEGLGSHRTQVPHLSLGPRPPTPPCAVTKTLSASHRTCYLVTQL

[8] = target: T5, human ASIC3 (acid-sensing ion channel 3) (human); remark: listed apart in the source
[9] = target: human ASIC3 E78Q (human) (UniProt Q9UHC3)
[10] = target: T5, human ASIC3 (acid-sensing ion channel 3) (human); remark: listed apart in the source

## N=C(N)NCCC[C@H](NC(=O)[C@@H]1CCCN1C(=O)[C@@H](N)CCCNC(=N)N)C(=O)N[C@@H](Cc1ccccc1)C(N)=O [RPRFa] (H-RPRF-NH2)
[1]
  EC50: ≥ 21.3 µM

## N=C(N)NCCC[C@H](NC(=O)[C@@H]1CCCN1C(=O)[C@H](CCCNC(=N)N)NC(=O)[C@@H](N)Cc1c[nH]c2ccccc12)C(=O)N[C@@H](CC1CCCCC1)C(N)=O [WRPR{Cha}a] (H-WRPR[Cha]-NH2)
[2]
  EC50: 2.33 µM

## CN(C)C(=N)NCCC[C@H](NC(=O)[C@@H]1CCCN1C(=O)[C@H](CCCNC(=N)N)NC(=O)[C@@H](N)Cc1c[nH]c2ccccc12)C(=O)N[C@@H](Cc1ccccc1)C(N)=O [WRP{ADMA}Fa] (H-WRP[Arg(Me2a)]F-NH2)
[1]
  EC50: 21.3 µM
[3]
  EC50: 4.93 µM

## FRPRF-NH2 [FRPRFa]
[2]
  EC50: 7.84 µM

## RPRF-COOH: RPRFa without C-terminal amidation (RPRF-OH)
[4]; 3 µM peptide
  Mean (I3s/Ipk), arithmetic: 0.00354
[4]; 30 µM peptide
  Mean (I3s/Ipk), arithmetic: 0.00339 ± 0.00259 and 0.00339

## RPRF-p-nitroanilide: RPRFa with C-terminal amide replaced by para-nitroanilide (RPRF-pNA)
[4]
  I3s/Ipk, SAR - RPRFa - 30 uM: 0.4296 and 0.3944 and 0.359 and 0.3858 and 0.3642
[4]; 30 µM peptide
  Mean (I3s/Ipk), arithmetic: 0.387
[4]; 30 µM peptide, listed as RPRF-p-na
  Mean (I3s/Ipk), arithmetic: 0.387 ± 0.028

## VRPRFa: site 5 Val (VRPRF-NH2)
[4]; 3 µM peptide
  Geometric mean (I3s/Ipk): 0.0213
[4]; 30 µM peptide, pH 6.3
  Geometric mean (I3s/Ipk): 0.157

## WIPRF-NH2 [WIPRFa]
[2]
  EC50: ≥ 24 µM
[3]
  EC50: 1.66 µM
[5]
  EC50: 20.8 µM
[6]
  EC50: 10.3 µM

## WKPRF-NH2 [WKPRFa]
[2]
  EC50: 9.08 µM

## WRPRF-COOH: WRPRFa without C-terminal amidation (WRPRF-OH)
[4]; 3 µM peptide
  Geometric mean (I3s/Ipk): 0.0303
[4]; 30 µM peptide, pH 6.3
  Geometric mean (I3s/Ipk): 0.249

## WRPR{Cha}a (peptide)
[7]
  EC50 of I3s/Ipk, QPatch II: 2.33 µM

## WRP{ADMA}Fa (peptide)
[8]
  EC50 of I3s/Ipk, escalating peptide before pH 6.3, manual patch clamp: 21.3 µM
[9]
  EC50 of I3s/Ipk, escalating peptide before pH 6.3, manual patch clamp: 4.93 µM

## RPRF-NH2 [RPRFa]
[10]
  EC50 of I3s/Ipk, RPRFa before a pH 6.3 stimulus, manual patch clamp, HEK cells: > 21.3 µM
